Reference: publication PMC4756830 (Nucleic Acids Research, 2015)

Biological target: the molecule itself
Assay: SEC-MALS

B1: GabR from Bacillus subtilis with C-terminal His6-tag (natural protein)
chain: MDITITLDRSEQADYIYQQIYQKLKKEILSRNLLPHSKVPSKRELAENLKVSVNSVNSAYQQLLAEGYLYAIERKGFFVEELDMFSAEEHPPFALPDDLKEIHIDQSDWISFSHMSSDTDHFPIKSWFRCEQKAASRSYRTLGDMSHPQGIYEVRAAITRLISLTRGVKCRPEQMIIGAGTQVLMQLLTELLPKEAVYAMEEPGYRRMYQLLKNAGKQVKTIMLDEKGMSIAEITRQQPDVLVTTPSHQFPSGTIMPVSRRIQLLNWAAEEPRRYIIEDDYDSEFTYDVDSIPALQSLDRFQNVIYMGTFSKSLLPGLRISYMVLPPELLRAYKQRGYDLQTCSSLTQLTLQEFIESGEYQKHIKKMKQHYKEKRERLITALEAEFSGEVTVKGANAGLHFVTEFDTRRTEQDILSHAAGLQLEIFGMSRFNLKENKRQTGRPALIIGFARLKEEDIQEGVQRLFKAVYGHKKIPVTGD
- stoichiometry N: 2
